Measurements as given in the DeepSol protein solubility set.

assay: soluble on expression in E. coli; label from the status in PepcDB or PDB records

Sequence	soluble on expression in E. coli
MKIMIIGATGMAGQALVTTALNRGHQVVAVARSAEKLATLPSNPNLTSIVRDAFNLTTTDLSAVDAVVDAFATAPDHAYLHVDLATHLISQLRETTTPRVAFILGAGSLTTGDDAHLFVHDLEQDPHAASFISVPQNQLKELTFLRDVDNVNWFGVSPAADFHPGEAQPALLGTDTLLFNDQQQSGTSAGTMAVAILDELENPLEHHHHHH	not soluble
MKIPASSPQDTTNNNNNTNSTDSNHLSMDEHVMRSMDWDSIMKELELDDDSAPNSLKTGFTTTTTDSTILPLYAVDSNLPGFPDQIQPSDFESSSDVYPGQNQTTGYGFNSLDSVDNGGFDFIEDLIRVVDCVESDELQLAQVVLSRLNQRLRSPAGRPLQRAAFYFKEALGSFLTGSNRNPIRLSSWSEIVQRIRAIKEYSGISPIPLFSHFTANQAILDSLSSQSSSPFVHVVDFEIGFGGQYASLMREITEKSVSGGFLRVTAVVAEECAVETRLVKENLTQFAAEMKIRFQIEFVLMKTFEMLSFKAIRFVEGERTVVLISPAIFRRLSGITDFVNNLRRVSPKVVVFVDSEGWTEIAGSGSFRREFVSALEFYTMVLESLDAAAPPGDLVKKIVEAFVLRPKISAAVETAADRRHTGEMTWREAFCAAGMRPIQQSQFADFQAECLLEKAQVRGFHVAKRQGELVLCWHGRALVATSAWRF	soluble
MKIPSVFMLEQQKASLQLHVKQLANEAIQKSAPSAWFEVLYAEAQGDTTQIPWAKLTPHPYLQEWLTNHQPFPSGQKALVIGCGLGDDAEALAKLGFAVTAFDISPTAIAWCGQRFPNSNVNYIVADLLAIPPQWHLAFDFVFECRNIQALPLNIRAEVITSIASVVAPDGTLLLINRVRLEHHHHHH	not soluble
MKIQDLLKKEVMIMDLKATSKEAAIDEMITKLVDTGVVTNFAIFKDGIMKREAQTSTGLGDGIAMPHSKNAAVKEATVLFAKSASGVDYEALDGQPTDLFFMIAAPDGANDTHLAALAELSKYLLKEGFADQLRQAKTPDDIIATFDS	soluble
MKIQFNRFLTRSLLTAALTGAASMAAAATMEVYKSPTCGCCAKWVDHMRDNGFTVNIHDIGNDEARAEAGILPELGSCHTALVNGYAIEGHVPADDIKQLLKERPRAVGLSAPGMPHGSPGMETGRVDSYNVLLIRKPGDKRSATEIYNRYGPGKSGAAEKTSENSTTDSVLRLK	not soluble
MKISEIENTFKEKLSVSLKKQEDTIRRQSLAENQGKLEVMENMNRVLSEAIESLQSQHSKDTEIIKAGLRTKGDRVTYVDNLRVEKKALEETVSQLRSENDKLKKIIRGESTNKPVLRSRTTKP	not soluble
MKIVKDFSPKEYSQKLVNWLSDSCMNYPAEGFVIGLSGGIDSAVAASLAVKTGLPTTALILPSDNNQHQDMQDALELIEMLNIEHYTISIQPAYEAFLASTQSFTNLQNNRQLVIKGNAQARLRMMYLYAYAQQYNRIVIGTDNACEWYMGYFTKFGDGAADILPLVNLKKSQVFELGKYLDVPKNILDKAPSAGLWQGQTDEDEMGVTYQEIDDFLDGKQVSAKALERINFWHNRSHHKRKLALTPNF	soluble
MKIVLAYSGGLDTSIILKWLKETYRAEVIAFTADIGQGEEVEEAREKALRTGASKAIALDLKEEFVRDFVFPMMRAGAVYEGYYLLGTSIARPLIAKHLVRIAEEEGAEAIAHGATGKGNDQVRFELTAYALKPDIKVIAPWREWSFQGRKEMIAYAEAHGIPVPVTQEKPYSMDANLLHISYEGGVLEDPWAEPPKGMFRMTQDPEEAPDAPEYVEVEFFEGDPVAVNGERLSPAALLQRLNEIGGRHGVGRVDIVENRFVGMKSRGVYETPGGTILYHARRAVESLTLDREVLHQRDMLSPKYAELVYYGFWYAPEREALQAYFDHVARSVTGVARLKLYKGNVYVVGRKAPKSLYRQDLVSFDEAGGYDQKDAEGFIKIQALRLRVRALVEREGHGA	soluble
MKIVRRDFVRNGPGSVKMVAEDSDDLWYAYNLIAVGDSVMAVTFRKVQREIPGGGRDSERVKLKLEVQVEEVDYDKDGSVLRIRGKNILENEHVKIGAFHTLELELKRPFVLRKEMWDSMALDTLKQASDPAASADLAVVLMQEGLAQIFLVGRSVTSSRARIETSIPRKHGPAIAGYESALKKFFENVLQAFVKHVDFSVVRCAVVASPGFTKDQFHRHLLLEAERRQLRPIIENKSRIILVHTNSGYRHSLGEVLHAPNVMNMIKDTKAAKEVKALNDFHNMLSTEPDRACYGPKHVEVANERMAIQTLLITDELFRNSDVKTRKKYVNLVESVKDSGGDAFIFSAMHVSGEQLAQLTGIAALLRFPLPELEDIEM	soluble
MKKALFLVGLVFTAGVISSCGGVSSQRTYEGAAVGAAVGAAAGVLLDKENRWRGGVIGAALGAILGGTITEIAQRAAKEAAQNNKPVVYRAEDGSQMVRAEPVEKRGNCTLVKTKYYQNGKLVKVEEKEVCE	not soluble
MKKARRRIDVDELFEGVRRGDRTLISRAITLLESTAPAHRVLAQELLVKLLPFSGKALRVGITGVPGVGKSTFIEALGMKLIGDGHKLAVLAIDPSSTKTRGSILGDKTRMAKLAREDNAFIRPSPSAGTLGGVAKATRESMVVFEAAGYDVILVETVGVGQSEVAVSQMVDCFTFLALAGAGDQLQGIKKGILEMADLVAINKADGPNLKNAKRAARELAAAMRMVRQENDLWHPPTITMSAVEHEGVDEFWEHVQNHNKAMLESGVFEHNRREQQVQWMWSMVHETLLQRLNTDPNVVEVKKLVEDQLRHAHITPTLAAERILKAFDHVTAD	not soluble
MKKDITLFTSARPELKFFRLSECKEHLDTAAMWAKNAWGYMHLDDEQFHYKQLQELCEHVYIAMYDGLPVGMLAVIEKTLSLEENREESSEKIVEEPSTPEITEMKNAYLDYVYIDERARSIGLAGIIIEKAKNLAREMNAEVMSLETLNSTLNGFYKRKGGRVICEGRYNDSYPTEVMRLRF	not soluble
MKKEANFDEVLFSLGQEVIQVLIRRGASLEDAQDAVSQTYTTIFSILPEITSENLRPWFFRVTFNYYITMYRKKKRERTFVANSHPVQSIEKMEGQELLLLIDSLKDEEQELVLLKYYYQLSYAEIALILELSVENVRKKLYRTRQKLKKELEE	not soluble
MKKEEMDVVSLRIIKLYFLGIRELNFPDYNKRFQQKDMELFIQLADMMENLPNLDEQLIYELEELKDYLFYVKTEKYSLTVHDMFLEMKSELEKII	not soluble
MKKESQVIFDKNVIEFVTVAAEFCAFLERAESMKRSTFVDTTLKILPLLYLKASMLPKCEMIGDESPETYVTEEIYEVLRINLASILAEKDDYLEVFLPDMAYSDEPIKKNISEDLADIYQDIKDFIFVFQLGLNETMNDSLAICQENFGLLWGQKLVNTMRALHDVKYSPKARLEHHHHHH	soluble
MKKETLYVAFSTQKGGVGKTTFTVLVASYLYYLKGYNVAVVDCDYPQHSISAMRKRDAEQVNGDDYYKQLAFSQFKTLGKKAYPVLCSSPDEAIKTADEFLASAGSDYDVVFFDLPGTVNSEGVINSLSGVDYIFTPIAADRVVLESSLSFAVAINKLLVKNEACRLKGLHLFWNMVDGREKTDLYTLYEQTIGELELPLMKVFIPDTKRFKKELDAQRKTVFRSTLFPADKRLVKGSNIEELITEIAYLIKL	soluble
MKKFVALILGCITICGLYGCSKNSSQIINKTFSLPAYNRIEIDSANDDIKIISGKHYRVRYVGQNKLKPTIKVKNGVLVIDSPKKSTIINSNIFGSKNIKQTLTIEMPKKELKYLSVDTSNGDVSVDYLEVQKGTIDTSNGNVNLKNLITKKDFEIDTSNGTVKVGKSNVEGYALSTSNGSIVVKGENKSDEFEKNTSAKNVLSIDTSNGNIYVNLEHHHHHH	not soluble
MKKGIDIGGTFIKVLWEDGKKEKHYIKDLKKDREALMEKIREVIKAGNPSGVGIAVAGFTSLNGIVYKSPNIPALDKTDFRKVLEDINIPFVVGNDVNLGAFGEWYYDYRDSKILLLVAVGTGLGTGLVYKGEVFFGVCGSALEMGHHTVKKGGELCNCGRKGCWEAYCSSYAIEREYKKLTGRTLKDYEIAEKAKEGEEEALKVVESFKDYLITGLMNGVHIFNPDRIVLAGGVIETFKEFLRDVPEKVKEISEELPALCLKISFSRAGEFMGARGALAYALKYLLEHHHHHH	soluble
MKKGLKMRALERSDLRFIHELNNNRNIMAYWFEEPYESYDELEELYRKHIHDDAERRFVVEDADGILIGLVELIEINYIHRSAEFQII	not soluble
